We go through three molecules from article PMC3189207 (2011).

What all share (assay): fluorescence polarization
Background: Polarisation of emitted light reports the rotation of a fluorescent probe.

One assay has as its target T1, AHDC1 (Homo sapiens).
T1 chain: PEDTFTVTSL

The target in a further assay is T2, ABR (Homo sapiens).
T2 chain: RNTLYFSTDV

For another assay, the target named is T3, ZO2 (Homo sapiens).
T3 chain: QSARYDTEL

Another assay concerns the target T4, APC (Homo sapiens).
T4 chain: HSGSYLVTSV

The next assay deals with T5, ANKS4B (Homo sapiens).
T5 chain: QPGQLVDTSL

In another assay the target is T6, ZNF654 (Homo sapiens).
T6 chain: SSAQPSETIL

B1: Scrib PDZ1 (protein)
chain: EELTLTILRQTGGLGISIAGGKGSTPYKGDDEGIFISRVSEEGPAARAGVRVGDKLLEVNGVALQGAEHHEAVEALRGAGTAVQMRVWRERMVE
Regarding B1, the dissociation constant Kd was determined as 19.2 µM with AHDC1, 12.5 µM with ABR, 16 µM with ZO2 and 12.3 µM with APC.

B2: Scrib PDZ3 (protein)
chain: PVEEIRLPRAGGPLGLSIVGGSDHSSHPFGVQEPGVFISKVLPRGLAARSGLRVGDRILAVNGQDVRDATHQEAVSALLRPCLELSLLVRRDPAPP
B2: the Kd in the assay with ANKS4B worked out at 28.2 µM; with AHDC1, 10.4 µM; in the assay with ABR, 2.9 µM; with ZO2, 13.7 µM; with APC it was 6.7 µM; with ZNF654, 18.3 µM.

B3: Scrib PDZ2 (protein)
chain: QRHVACLARSERGLGFSIAGGKGSTPYRAGDAGIFVSRIAEGGAAHRAGTLQVGDRVLSINGVDVTEARHDHAVSLLTAASPTIALLLEREAGGP
For the molecule B3, the Kd in the assay with ABR was found to be 10.4 µM; with APC, 9.5 µM; with ZNF654, 32.1 µM.

The Kd is a measure of binding affinity in units of concentration. Higher therefore signals a looser complex.
